Assay [1] deals with human TNFR2 overexpressed on CHO-S cells (CHOS-hTNFR2) (human) (UniProt P20333). The experiment in a line: flow cytometry on CHO-S cells overexpressing human TNFR2 (negative control), MFI-FL2-A; unit taken from the axis Conc log(nM); the curve is flat, so the fit is ambiguous.
Assay [2] concerns the target TNFR2 on human K562 chronic myeloid leukemia cells and on primary human Treg cells (human) (UniProt P20333). The experiment in a line: flow cytometry on human K562 CML cells (negative control), MFI(FL2); unit taken from the axis Conc log(nM); the curve stays near the baseline and the value lies beyond the highest concentration shown. Background: Flow cytometry measures light scatter and fluorescence of single cells or particles in a stream.

Assay [3] concerns the target cynomolgus monkey TNFR2 overexpressed on CHO-S cells (CHOS-cTNFR2) (cynomolgus monkey). The experiment in a line: flow cytometry on CHO-S cells overexpressing cynomolgus monkey TNFR2 (negative control), MFI-FL2-A; unit taken from the axis Conc log(nM); the curve stays near the baseline.
Assay [4] has as its target T1, hTNFR2 protein (coated on the microplate in the blocking ELISA) (human, UniProt P20333 23-257).
T1 construct: The construct coated in the ELISA is not described (it may or may not be the immunogen, Sino biological 10417-H03H)
T1 sequence (looked up): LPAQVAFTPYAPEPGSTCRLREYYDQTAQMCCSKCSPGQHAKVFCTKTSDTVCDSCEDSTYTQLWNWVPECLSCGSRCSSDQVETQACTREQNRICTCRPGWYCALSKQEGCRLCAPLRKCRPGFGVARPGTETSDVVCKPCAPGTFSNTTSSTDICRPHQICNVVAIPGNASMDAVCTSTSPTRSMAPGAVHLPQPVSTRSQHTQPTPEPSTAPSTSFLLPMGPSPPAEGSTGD
As to the kind of experiment: blocking ELISA: hTNFR2 coated on the plate, binding of biotinylated TNFα blocked by the antibody, Avidin-HRP. As for the experimental part: The ability of the hybridoma antibodies 3C4, 69B1, and 72G8 and the control antibody OPI to block the binding of human TNFα to hTNFR2 was assayed by ELISA.
(§1) The hTNFR2 protein was resuspended and dissolved to a concentration of 2 μg/mL with PBS, and a microplate was coated with the protein and incubated overnight. The plate was blocked with 5% BSA for 1 h, and a biotinylated antigen (Recombinant Biotinylated TNFα protein (ACRO)) was diluted to 3 μg/mL and added to the plate at 20 μL/well. The antibodies prepared as described above (3C4, 69B1, and 72G8) were each diluted in a gradient starting from the maximum concentration of 300 nM for a total of 8 or 12 dilution gradients. The diluted antibodies were added at 200 μL/well and incubated in PBS on ice for 30 min. The antigen-antibody mixture was incubated in a microplate for 90 min and washed three times with PBS, and the supernatant was discarded. 100 μL of Avidin-HRP (Invitrogen) diluted at a 1:5000 ratio was added to each well, incubated at room temperature for 30 min, and washed six times with PBS. A TMB chromogenic solution (solarbio) was added to the plate at 100 μL/well for color development for 1 min, and the reaction was stopped by adding a stop buffer (solarbio) at 100 μL/well. The plate was read on a microplate reader at OD₄₅₀ and OD₆₂₀.

Assay [5] concerns the target T2, human TNFR2 overexpressed on CHO-S cells (CHOS-hTNFR2) (human, UniProt P20333 23-461).
T2 construct: also called hTNFR2 CHO-S; human TNFR2 molecule overexpressed on CHO-S cells
T2 sequence: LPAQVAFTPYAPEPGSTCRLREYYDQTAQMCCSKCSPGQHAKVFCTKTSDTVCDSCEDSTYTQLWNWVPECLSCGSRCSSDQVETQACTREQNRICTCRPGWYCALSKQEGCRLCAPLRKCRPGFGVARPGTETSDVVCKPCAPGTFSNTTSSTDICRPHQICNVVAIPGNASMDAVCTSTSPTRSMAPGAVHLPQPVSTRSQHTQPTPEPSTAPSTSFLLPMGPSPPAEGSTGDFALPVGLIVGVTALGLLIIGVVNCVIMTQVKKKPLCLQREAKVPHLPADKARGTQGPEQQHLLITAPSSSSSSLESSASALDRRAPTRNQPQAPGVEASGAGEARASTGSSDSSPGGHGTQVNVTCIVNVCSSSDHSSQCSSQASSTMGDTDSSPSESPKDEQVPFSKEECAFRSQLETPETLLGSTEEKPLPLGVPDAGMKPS
The experiment in a line: flow cytometry on CHO-S cells overexpressing human TNFR2 (hybridoma antibodies), MFI. Here is the method: (§2) In the study, the binding of the hybridoma antibodies (3C4, 69B1, and 72G8) of the present invention, after being diluted in a gradient, to a stable CHO-S cell strain overexpressing human TNFR2 on the surface was assayed by using a flow cytometer.
(§3) CHOS-hTNFR2 cells or CHOS-cTNFR2 cells were counted and diluted to 2×10⁶ cells/mL, and added to a U-bottom 96-well plate at 100 μL/well. The mixture was centrifuged at 300 g for 5 min, and the cell medium was removed. The dilutions of the samples (the hybridoma antibodies 3C4, 69B1, and 72G8 and the positive control antibody OPI) (the antibodies were subjected to a two-fold serial dilution in PBS from the maximum antibody concentration of 300 nM) were added to the U-plate, and the cells were resuspended at 100 μL/well and left to stand on ice for 30 min. The suspension was centrifuged at 400 g for 5 min, and the supernatant was removed. The cells were washed twice with PBS. The mixture was centrifuged at 300 g for 5 min, and PBS was removed. […] The mixture was centrifuged at 400 g for 5 min, and the supernatant was removed. The cells were washed 3 times with PBS. The cells were resuspended in 200 μL of 1×PBS and assayed by FACS.

The target of assay [6] is T3, TNFR2 on human K562 chronic myeloid leukemia cells and on primary human Treg cells (human, UniProt P20333 23-461).
T3 construct: whole, on cells; also called K562 cells
T3 sequence (looked up): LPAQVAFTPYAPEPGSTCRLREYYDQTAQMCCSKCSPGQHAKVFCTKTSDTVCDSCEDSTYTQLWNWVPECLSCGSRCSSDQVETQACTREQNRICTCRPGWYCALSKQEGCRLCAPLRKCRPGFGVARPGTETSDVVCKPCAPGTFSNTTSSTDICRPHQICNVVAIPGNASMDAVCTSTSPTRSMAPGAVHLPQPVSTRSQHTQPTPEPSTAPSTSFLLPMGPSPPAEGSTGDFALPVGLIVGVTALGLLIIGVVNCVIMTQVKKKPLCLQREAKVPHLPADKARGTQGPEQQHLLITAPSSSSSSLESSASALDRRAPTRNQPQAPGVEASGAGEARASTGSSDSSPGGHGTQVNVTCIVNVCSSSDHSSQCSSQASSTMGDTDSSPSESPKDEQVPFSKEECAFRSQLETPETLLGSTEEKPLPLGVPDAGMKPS
As to the kind of experiment: flow cytometry on primary human Treg cells, MFI(FL2); unit taken from the axis Conc log(nM). Here is the method: Tregs were prepared as follows: Human PBMC cells ([…], PB005F) were thawed, CD4⁺ CD25⁺ CD127^low cells were sorted by flow cytometry, and Treg cells were isolated. According to CD4⁺:anti-CD3/CD28 Beads=1:1, Dynabeads Human T-Activator CD3/CD28 (Gibco, 11131D) was added, followed by 10 ng/mL recombinant IL2, and the cells were stimulated for 7 days.
(§4) Assay steps: The mixture was centrifuged at 400 g for 5 min, and the cell medium was removed. K562 or Treg cells were resuspended in PBS. After counting, the cells were adjusted to a density of 2×10⁶/mL, and the cell suspension was added to a U-bottom 96-well plate at 100 μL/well. The test antibody was added, subjected to a three-fold gradient dilution, and left to stand on ice for 30 min. The mixture was centrifuged at 300 g for 5 min, and the supernatant was removed. The cells were washed once with PBS. The mixture was centrifuged at 300 g for 5 min, and PBS was removed. 100 μL of PE-anti-human Fc antibody (SOUTHERN BIOTECH, 2040-09) diluted at a ratio of 1:200 was added to each well. The mixture was incubated on ice for 30 min in the dark. The mixture was centrifuged at 400 g for 5 min, and the supernatant was removed. The cells were washed twice with PBS. The cells were resuspended in 100 μL of PBS and assayed by using a flow cytometer (BD, ACCURIC6 plus).

Assay [7] deals with T2, human TNFR2 overexpressed on CHO-S …. The experiment in a line: flow cytometry on CHO-S cells overexpressing human TNFR2 (humanized antibodies), MFI-FL2A; unit taken from the axis Conc log(nM). Here is the method:
In the study, the binding of the antibodies, after being diluted in a gradient, to a stable CHO-S strain line overexpressing human TNFR2 on the surface was assayed by using a flow cytometer.
CHOS-hTNFR2 cells were counted and diluted to 2×10⁶ cells/mL, and added to a U-bottom 96-well plate at 100 μL/well. The mixture was centrifuged at 300 g for 5 min, and the cell medium was removed. Samples (the humanized antibodies hz3C4.7, hz69B1.5, hz69B1.6, hz69B1.11 and hz69B1.20, the chimeric antibody 69B1, and the positive control antibody OPI) (the antibodies were subjected to a three-fold dilution in PBS from the maximum antibody concentration of 300 nM) were added to the U-plate, and the cells were resuspended at 100 μL/well and left to stand on ice for 30 min. The suspension was centrifuged at 400 g for 5 min, and the supernatant was removed. The cells were washed twice with PBS. The mixture was centrifuged at 300 g for 5 min, and PBS was removed. 100 μL of anti-human Fc PE-labeled secondary antibody (SoutherBiotech; 2040-09) (diluted at a 1:100 ratio in PBS) was added to each well and incubated on ice for 30 min in the dark. The mixture was centrifuged at 400 g for 5 min, and the supernatant was removed. The cells were washed 3 times with PBS. The cells were resuspended in 200 μL of 1×PBS and assayed by FACS.

In assay [8] the target is T3, TNFR2 on human K562 chronic myeloid …. As to the kind of experiment: flow cytometry on human K562 CML cells, MFI(FL2); unit taken from the axis Conc log(nM). As for the experimental part:
as §4

The target of assay [9] is T1, hTNFR2 protein (coated on the …). The experiment in a line: blocking ELISA: hTNFR2 coated on the plate, binding of biotinylated TNFα blocked by the antibody; unit taken from the axis Conc log(nM) [A]. As for the experimental part:
as §1, with “to 2” for “to 3”, “at 10” for “at 20”, “at 100” for “at 200”
In a similar manner to that in Example 7, the ability of the humanized antibodies hz3C4.7, hz69b1.5, hz69b1.6, hz69b1.11, and hz69b1.20, and the control antibody OPI to block the binding of human TNFα to hTNFR2 was assayed by ELISA.
(In general: ELISA stands for enzyme-linked immunosorbent assay.)

In assay [10] the target is T4, cynomolgus monkey TNFR2 overexpressed on CHO-S cells (CHOS-cTNFR2) (cynomolgus monkey, UniProt P20333 23-461 (human entry)).
T4 construct: also called cTNFR2 CHO-S
T4 chain: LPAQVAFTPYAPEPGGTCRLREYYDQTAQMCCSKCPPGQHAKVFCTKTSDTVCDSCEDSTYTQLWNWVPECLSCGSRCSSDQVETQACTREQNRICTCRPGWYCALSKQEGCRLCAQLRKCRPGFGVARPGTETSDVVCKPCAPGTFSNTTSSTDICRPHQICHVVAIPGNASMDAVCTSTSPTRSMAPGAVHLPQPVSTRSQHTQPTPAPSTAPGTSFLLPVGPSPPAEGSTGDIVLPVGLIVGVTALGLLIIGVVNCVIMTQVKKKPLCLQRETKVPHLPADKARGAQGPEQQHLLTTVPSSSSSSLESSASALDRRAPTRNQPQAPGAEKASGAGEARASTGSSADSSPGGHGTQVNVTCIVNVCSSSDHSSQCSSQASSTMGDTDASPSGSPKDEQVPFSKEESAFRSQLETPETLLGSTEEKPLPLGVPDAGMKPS
As to the kind of experiment: flow cytometry on CHO-S cells overexpressing cynomolgus monkey TNFR2 (hybridoma antibodies), MFI. Here is the method:
as §2, §3

IgG (antibody): the EC50 (commonly the concentration giving half of the maximal effect) in [1] was 13500 µM; in assay [2] it was 0.0223 µM; in [3], 0.00112 µM.

B1: hybridoma antibody 3C4 (antibody, V domains shown)
VH: QVQLQQSGPELVKPGASVTISCKASDYSFTNYYIHWVKQRPGQGLEWIGWIYPGNVITKYHEKFKGKAILTADTSSTTAYMQLNSLTSEDSAVYFCARSRATGYFDYWGQGTTLTVSS
VL: DIQMTQTTSSLSASLGDRVTISCRASQDIRNYLNWFQQKPDGTIKLLIYYTSRLHSGVPSRFSGSGSGTDYSLTISNLEQEDMATYFCQQFNTLPWTFGGGTKLEIK
notes: Murine antibody from the hybridoma (detected with anti-mouse IgG)
Turning to B1, the “IC50 (read off the curve)” value in [4] was approximately 0.005 µM. In [5], the EC50 (read off the curve) – broadly, the concentration at which the effect is half-maximal – is approximately 0.002 µM.

B2: humanized antibody hz3C4.7 (antibody, human IgG1, kappa, V domains shown)
VH: QVQLVQSGAEVKKPGASVKVSCKASDYSFTNYYIHWVRQAPGQGLEWMGWIYPGNVITKYHEKFKGRVTMTADTSTSTAYMELSSLRSEDTAVYYCARSRATGYFDYWGQGTLVTVSS
VL: DIQMTQSPSSLSASVGDRVTITCRASQDIRNYLNWYQQKPGKAPKLLIYYTSRLHSGVPSRFSGSGSGTDYTLTISSLQPEDFATYYCQQFNTLPWTFGGGTKVEIKR
As for B2, the EC50 in assay [6] is 59.9 pM; in [7], 0.000207 µM; in assay [8], 35.6 pM. For the same molecule, in assay [9], the IC50 (commonly the concentration needed to halve the response being measured) was found to be 0.03 µM.

B3: hybridoma antibody 69B1 (antibody, V domains shown)
VH: QIQLVQSGPELKKPGETVKISCKASGYTFTDYSMNWVKQAPGKGLKWMGWLNTETGEPIYADDFKGRFVFSLETSASTAYLEINNLNDEDTATYFCAREAIYYGTSYVLDYWGQGTSVTVSS
VL: DIVLTQSPASLAVSLGQRATISCRASESVEYYGTNFMQWYQQKPGQPPKLLIYSASNVESGVPARFSGSGSGTDFSLNIHPVEEDDIAVYFCQQSRKDPSTFGEGTNLEIK
notes: as for B1
For B3, the “EC50 (read off the curve)” value in [5] and in assay [10] was approximately 0.001 µM throughout.

The values above are taken from patent US20240026019A1 (Innovent, published 2024).
